The values that follow come from patent US20100329990.

This data set concerns the target TTE (TBF-EGFP fusion with the TEV protease recognition sequence ENLYFQG, flanked by 4 glycines on each side, between TBF and EGFP).

B1: TEV protease (Gibco-Life Technologies) (protein)
chain: GESLFKGPRDYNPISSTICHLTNESDGHTTSLYGIGFGPFIITNKHLFRRNNGTLLVQSLHGVFKVKNTTTLQQHLIDGRDMIIIRMPKDFPPFPQKLKFREPQREERICLVTTNFQTKSMSSMVSDTSCTFPSSDGIFWKHWIQTKDGQCGSPLVSTRDGFIVGIHSASNFTNTNNYFTSVPKNFMELLTNQEAQQWVSGWRLNADSVLWGGHKVFMSKPEEPFQPVKEATQLMNELVYSQ
For the protein B1, the “cleavage of TTE by TEV protease, followed by time-gated emission spectra (loss of Tb3+ to EGFP energy transfer)” value was “The absence of the chromophore peak at 510 nm indicates that the energy transfer system from Tb^3+ to the chromophore is diminished”.
